The values that follow come from patent US20170190774A1 (REPROPHARM, published 2017).

Where two headings read alike, the source gives them in different places.

Assay [1] has as its target T1, β-subunit of human FSH (human, UniProt P01225 19-129).
T1 construct: mature; Isolated subunit adsorbed on the ELISA plate; also called β-s.u. hFSH
Briefly: ELISA, subunit adsorbed on the plate, antibody titrated; (A/B)x100 relative to oFSH.

The target in assay [2] is T2, α-subunit of ovine FSH (ovine, UniProt P01218 25-120). The assay is described as above.
Assay [3] deals with T3, β-subunit of ovine FSH (ovine, UniProt P01227 20-129).
T3 construct: mature; Isolated subunit adsorbed on the ELISA plate; also called β-s.u. oFSH; β-oFSH
The description is as above.

The target in assay [4] is T4, human FSH Gonal-F (recombinant human FSH, Merck Serono) (human, UniProt P01215 25-116; P01225 19-129). Briefly: cell-based or functional assay.
The target of assay [5] is T5, ovine FSH (oFSH) (ovine, UniProt P01218 25-120; P01227 20-129). Kind of assay: cell-based or functional assay.
In assay [6] the target is T6, porcine FSH (pFSH) (porcine, UniProt P01219 25-120; P01228 21-129). Kind of assay: ELISA, hormone adsorbed on the plate, antibody titrated; (A/B)x100 relative to oFSH. The method, then:
(§1) The specificity of the antibodies and of the scFv thereof was studied by the ELISA technique. Each hormone evaluated was prepared at the concentration of 10 μg/ml in a 0.1M sodium carbonate buffer, pH 9.6, and distributed in a proportion of 100 μl per well on an ELISA plate. The adsorption time was 18 hours at +4° C. After five washes, the wells were treated with 100 μl of PBS supplemented with 0.1% Tween and 1% BSA for 45 minutes at 37° C., then each antibody or scFv was distributed in a proportion of 100 μl/well and incubated for one hour at 37° C. On each hormone evaluated, the antibodies and the scFvs were distributed at various concentrations according to a range of 10 to 250 μg/ml for the antibodies and of 10 to 150 or 200 μg/ml for the scFvs.
(§2) After five washes, a secondary antibody coupled to peroxidase (HRP) was distributed in a proportion of 100 μl/well and incubated for one hour at 37° C. […] For the scFvs, an anti-His Tag HRP (Ref. R93125 Life Technologies, France) was used. […] After the reaction had been stopped with 1M H₂SO₄ (50 μl/well), the strength of the colored reaction (optical density) was measured using a spectrophotometer for ELISA plates.
(§3) The percentage of cross reaction was calculated conventionally by comparing the dose-response curves obtained with the concentration range of the antibody or of the scFv.

For assay [7], the target named is T4, human FSH Gonal-F (recombinant human …). The description is as above. The procedure: as §1, §2, §3
The target of assay [8] is T7, human FSH Fostimon (purified FSH extracted from urine, Laboratoire Genévrier) (human, UniProt P01215 25-116; P01225 19-129).
T7 construct: mature; Extracted pharmaceutical preparation; also called hFSH (Fostimon); hFSH Fostimon
Described as above. The method, then: as §1, §2, §3

Assay [9] concerns the target T8, human FSH Puregon (recombinant human FSH, Merck Schering-Plough) (human, UniProt P01215 25-116; P01225 19-129).
T8 construct: mature; Recombinant pharmaceutical preparation; also called hFSH (Puregon); hFSH Puregon
Described as above. The procedure:
as §1, §2, §3

Assay [10] has as its target T1, β-subunit of human FSH. Kind of assay: ELISA, subunit adsorbed on the plate, antibody titrated; (A/B)x100 relative to oFSH. The method, then:
as §1, §2, §3
The source holds these as a separate data set. A general note: In an ELISA, binding on a coated surface is turned into a signal by an enzyme label.

For assay [11], the target named is T2, α-subunit of ovine FSH. The assay is described as above. The procedure:
as §1, §2, §3
The source holds these as a separate data set.

For assay [12], the target named is T3, β-subunit of ovine FSH. The description is as above. The procedure:
as §1, §2, §3
The source holds these as a separate data set.

Assay [13] addresses T5, ovine FSH (oFSH). Briefly: ELISA saturation binding, one site-specific binding fit in GraphPad Prism (estimate); differs from Table 25.
The target in assay [14] is T9, ovine LH (oLH) (ovine, UniProt P01218 25-120; P01231 21-141). Kind of assay: ELISA, hormone adsorbed on the plate, scFv titrated, anti-His HRP; (A/B)x100 relative to oFSH. The method, then: as §1, §2, §3
Assay [15] deals with T6, porcine FSH (pFSH). Described as above. The method, then:
as §1, §2, §3

The target in assay [16] is T10, bovine LH (bLH) (bovine, UniProt P01217 25-120; P04651 21-141). The assay is described as above. The method, then:
as §1, §2, §3

Assay [17] addresses T4, human FSH Gonal-F (recombinant human …). The assay is described as above. The procedure: as §1, §2, §3
The target of assay [18] is T7, human FSH Fostimon (purified FSH …). Described as above. The method, then:
as §1, §2, §3

Assay [19] deals with T11, porcine LH (pLH) (porcine, UniProt P01219 25-120; P01232 21-141). Described as above. The procedure: as §1, §2, §3
The target of assay [20] is T8, human FSH Puregon (recombinant human …). The description is as above. The procedure:
as §1, §2, §3

For assay [21], the target named is T9, ovine LH (oLH). Kind of assay: ELISA saturation binding, one site-specific binding fit in GraphPad Prism (estimate). The procedure:
as §1

Assay [22] deals with T12, hCG Chorulon (human chorionic gonadotropin extracted from urine, MSD) (human, UniProt P01215 25-116; P0DN86 21-165).
T12 construct: mature; Extracted veterinary preparation
The assay is described as above. The procedure:
as §1

The target of assay [23] is T6, porcine FSH (pFSH). The assay is described as above. The method, then: as §1
The target of assay [24] is T10, bovine LH (bLH). The assay is described as above. The procedure: as §1
Assay [25] has as its target T13, equine chorionic gonadotropin (eCG) (equine, UniProt P01220 25-120; P08751 21-169).
T13 construct: mature; Alpha/beta dimer
Described as above. The procedure: as §1

The target of assay [26] is T4, human FSH Gonal-F (recombinant human …). The description is as above. The method, then:
as §1

Assay [27] concerns the target T7, human FSH Fostimon (purified FSH …). Described as above. The procedure:
as §1

The target of assay [28] is T14, hCG Endo 5000 (purified human chorionic gonadotropin, Schering-Plough) (human, UniProt P01215 25-116; P0DN86 21-165).
T14 construct: mature; Extracted pharmaceutical preparation
The description is as above. The procedure: as §1

Assay [29] addresses T11, porcine LH (pLH). The assay is described as above. The procedure: as §1
The target of assay [30] is T5, ovine FSH (oFSH). The description is as above. The method, then: as §1
For assay [31], the target named is T8, human FSH Puregon (recombinant human …). The assay is described as above. The procedure: as §1

T8 sequence (P01215 25-116, chain 1 of 2): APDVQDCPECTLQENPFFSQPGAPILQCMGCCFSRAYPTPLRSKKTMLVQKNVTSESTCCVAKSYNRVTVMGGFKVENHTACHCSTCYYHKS
T8 sequence (P01225 19-129, chain 2 of 2): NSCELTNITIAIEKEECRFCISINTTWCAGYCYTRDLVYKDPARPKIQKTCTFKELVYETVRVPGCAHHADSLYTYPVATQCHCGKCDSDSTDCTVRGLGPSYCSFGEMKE
T7 sequence (P01215 25-116, chain 1 of 2): as the sequence (P01215 25-116, chain 1 of 2) above
T7 sequence (P01225 19-129, chain 2 of 2): as the sequence (P01225 19-129, chain 2 of 2) above
T4 sequence (P01215 25-116, chain 1 of 2): as the sequence (P01215 25-116, chain 1 of 2) above
T4 sequence (P01225 19-129, chain 2 of 2): as the sequence (P01225 19-129, chain 2 of 2) above
T1 sequence (P01225 19-129): as the sequence (P01225 19-129, chain 2 of 2) above
T12 sequence (P01215 25-116, chain 1 of 2, other chains not shown): as the sequence (P01215 25-116, chain 1 of 2) above
T14 sequence (P01215 25-116, chain 1 of 2, other chains not shown): as the sequence (P01215 25-116, chain 1 of 2) above
T13 sequence (P01220 25-120, chain 1 of 2): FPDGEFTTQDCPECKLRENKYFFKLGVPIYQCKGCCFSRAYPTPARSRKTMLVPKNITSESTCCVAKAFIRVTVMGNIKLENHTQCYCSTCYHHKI
T13 sequence (P08751 21-169, chain 2 of 2): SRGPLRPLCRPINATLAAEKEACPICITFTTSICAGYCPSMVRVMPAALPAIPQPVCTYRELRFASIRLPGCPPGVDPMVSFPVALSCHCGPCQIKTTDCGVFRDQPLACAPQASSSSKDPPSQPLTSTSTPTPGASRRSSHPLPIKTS

B1: CA5 monoclonal antibody (antibody, IgG2a, V domains shown)
VH: EVKLVESGGGLVQPGGSLRLSCATSGFTFSDFYMEWVRQPPGKRLEWIAASRNKAKDYTTEYSASVKGRFIVSRDTSQSILYLQMNALRAEDTAIYFCARDARFAYWGQGTLVTVSA
VL: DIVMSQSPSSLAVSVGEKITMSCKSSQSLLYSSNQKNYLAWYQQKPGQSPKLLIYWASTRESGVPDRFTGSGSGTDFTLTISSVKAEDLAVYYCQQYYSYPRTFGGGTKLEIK
notes: also called CA5 antibody; CA5 ligand
For the molecule B1, the cross reaction in assay [1] was determined as 50%; in [2] it was 6%; in [3], 80%; in assay [6], 134%; in assay [7], 128%; in assay [8] it was 76%. Moreover, the cross reaction in assay [9] was determined as 70%. The “EC50 of the hFSH/CA5 complex, cAMP (GloSensor), HEK 293 cells with the human FSH receptor” value in assay [4] came out at 0.136 nM. Moreover, in assay [5], the “EC50 of the oFSH/CA5 complex, cAMP (GloSensor), HEK 293 cells with the human FSH receptor” value was 0.283 nM. Further, the “amplification of cAMP secretion, bovine granulosa cells” value in assay [5] came out at 1.3 fold.

B2: CH10 monoclonal antibody (antibody, IgM, V domains shown)
VH: EVQLVESGGGLVQPKGSLKLSCAASGFTFNTYAMNWVRQAPGKGLEWVARIRSKSNNYATYYADSVKDRFTISRDDSQSMLYLQMNNLKTEDTAMYYCVRQDYYGSSYFDYWGQGTTLTVSS
VL: DIVMTQSPATLSVTPGDRVSLSCRASQSISDYLHWYQQKSHESPRLLIKYASQSISGIPSRFSGSGSGSDFTLSINSVEPEDVGVYYCQNGHSFPYTFGGGTKLEIK
notes: also called CH10 antibody; CH10 ligand
As for B2, in assay [4], the “EC50 of the hFSH/CH10 complex, cAMP (GloSensor), HEK 293 cells with the human FSH receptor” value was 0.317 nM. The “amplification of cAMP secretion, bovine granulosa cells” value in assay [5] stood at 5.5 fold. Further, the cross reaction was found to be 40% in assay [10]; 43% in assay [11]; 88% in [12]; 24% in assay [6]; 50% in [7]; 100% in assay [8]. Also, in [9], the cross reaction worked out at 71%.

B3: CH10 scFv (scFv)
scFv: QVQLQQSGGGLVQPKGSLKLSCAASGFTFNTYAMNWVRQAPGKGLEWVARIRSKSNNYATYYADSVKDRFTISRDDSQSMLYLQMNNLKTEDTAMYYCVRQDYYGSSYFDYWGQGTTLTVSSGGGGSGGGGSGGGGSDIQMTQTPATLSVTPGDRVSLSCRASQSISDYLHWYQQKSHESPRLLIKYASQSISGIPSRFSGSGSGSDFTLSINSVEPEDVGVYYCQNGHSFPYTFGGGTKLEIKHHHHHH
notes: VH-(Gly4Ser)3-VL-His6, made in the E. coli periplasm; also called scFv derived from the CH10 antibody
For orientation: Kd means the concentration at which binding is half-saturated. B3: the Kd is 7510 nM in assay [13]; 1550 nM in [21]; 1470 nM in assay [22]; 5220 nM in assay [23]; 1940 nM in assay [24]; 1970 nM in [25]. In addition, the Kd was 1820 nM in assay [26]; 1590 nM in [27]; 2090 nM in [28]; 2470 nM in assay [29]; 2850 nM in assay [30]; 11500 nM in [31]. Also, the cross reaction in assay [14] is 68%; in assay [15], 175%; in [16], 52%; in assay [17], 32%; in assay [18], 30%; in [19], 63%. Moreover, the cross reaction in assay [20] came to 67%.
